Laboratory results as given in US20250270332A1.

Target: FZD1/2/4/5/7/8
Test: cell-based or functional assay

B1: CH3 (Dia-CH3-Dia) (bispecific antibody)
chain: MNLLLILTFVAAAVAEFEVQLVESGGGLVQPGGSLRLSCAASGFNIGSSSIHWVRQAPGKGLEWVASIYSAFASTSYADSVKGRFTISADTSKNTAYLQMNSLRAEDTAVYYCARYHFPFGFALDYWGQGTLVTVSSGGGGSDIQMTQSPSSLSASVGDRVTITCRASQSVSSAVAWYQQKPGKAPKLLIYSASSLYSGVPSRFSGSRSGTDFTLTISSLQPEDFATYYCQQGVYLFTFGQGTKVEIKDKTHTKVEPKTSDKTHTCPPCPGQPREPQVYTLPPSREEMTKNQVSLTCLVKGFYPSDIAVEWESNGQPENNYKTTPPVLDSDGSFFLYSKLTVDKSRWQQGNVFSCSVMHEALHNHYTQKSLSLSPGKGTTAASGSSGGSSSGAGRTEVQLVESGGGLVQPGGSLRLSCAASGFNISYSSIHWVRQAPGKGLEWVAYISSYYGYTYYADSVKGRFTISADTSKNTAYLQMNSLRAEDTAVYYCARAHYFPWAGAMDYWGQGTLVTVSSGGGGSDIQMTQSPSSLSASVGDRVTITCRASQSVSSAVAWYQQKPGKAPKLLIYSASSLYSGVPSRFSGSRSGTDFTLTISSLQPEDFATYYCQQYSWGPFTFGQGTKVEIK
Maximal Signal (% Wnt3a maxima) (% Wnt3a maxima): 22

B2: Fab-Dia (bispecific antibody)
heavy: EVQLVESGGGLVQPGGSLRLSCAASGFNIHSSSIHWVRQAPGKGLEWVAATYSSFGSITYADSVKGRFTISADTSKNTAYLQMNSLRAEDTAVYYCARYHHPFGYALDYWGQGTLVTVSSASTKGPSVFPLAPSSKSTSGGTAALGCLVKDYFPEPVTVSWNSGALTSGVHTFPAVLQSSGLYSLSSVVTVPSSSLGTQTYICNVNHKPSNTKVDKKVEPKSCDKTHTGGSGGEVQLVESGGGLVQPGGSLRLSCAASGFTISYSSIHWVRQAPGKGLEWVASISPYYGYTYYADSVKGRFTISADTSKNTAYLQMNSLRAEDTAVYYCARSSYFPWFSAMDYWGQGTLVTVSSGGGGSDIQMTQSPSSLSASVGDRVTITCRASQSVSSAVAWYQQKPGKAPKLLIYSASSLYSGVPSRFSGSRSGTDFTLTISSLQPEDFATYYCQQYYWPITFGQGTKVEIK
light: DIQMTQSPSSLSASVGDRVTITCRASQSVSSAVAWYQQKPGKAPKLLIYSASSLYSGVPSRFSGSRSGTDFTLTISSLQPEDFATYYCQQGVYLFTFGQGTKVEIKRTVAAPSVFIFPPSDEQLKSGTASVVCLLNNFYPREAKVQWKVDNALQSGNSQESVTEQDSKDSTYSLSSTLTLSKADYEKHKVYACEVTHQGLSSPVTKSFNRGECGGGGSEVQLVESGGGLVQPGGSLRLSCAASGFTISSYYIHWVRQAPGKGLEWVASIYSSYGYTSYADSVKGRFTISADTSKNTAYLQMNSLRAEDTAVYYCARTVRGSKKPYFSGWAMDYWGQGTLVTVSSGGGGSDIQMTQSPSSLSASVGDRVTITCRASQSVSSAVAWYQQKPGKAPKLLIYSASSLYSGVPSRFSGSRSGTDFTLTISSLQPEDFATYYCQQYYFLITFGQGTKVEIK
EC50 (nM), TOPFLASH assay: 0.4 nM | Maximal Signal (% Wnt3a maxima) (% Wnt3a maxima): 42

B3: CM0011 (Dia-Fc-Dia) (bispecific antibody)
chain 1: MNLLLILTFVAAAVAEFEVQLVESGGGLVQPGGSLRLSCAASGFNIGSSSIHWVRQAPGKGLEWVASIYSAFASTSYADSVKGRFTISADTSKNTAYLQMNSLRAEDTAVYYCARYHFPFGFALDYWGQGTLVTVSSGGGGSDIQMTQSPSSLSASVGDRVTITCRASQSVSSAVAWYQQKPGKAPKLLIYSASSLYSGVPSRFSGSRSGTDFTLTISSLQPEDFATYYCQQGVYLFTFGQGTKVEIKLEDKTHTKVEPKSSDKTHNCPPCPAPELLGGPSVFLFPPKPKDTLMISRTPEVTCVVVDVSHEDPEVKFNWYVDGVEVHNAKTKPREEQYNSTYRVVSVLTVLHQDWLNGKEYKCKVSNKALPAPIEKTISKAKGQPREPQVYTLPPIRELMTSNQVSLSCAVKGFYPSDIAVEWESNGQPENNYKTTPPVLDSDGSFFLVSKLTVDKSRWQQGNVFSCSVMHEALHNHYTQKSLSLSPGKSGSETPGTSESATPESGGGEVQLVESGGGLVQPGGSLRLSCAASGFNISSYYIHWVRQAPGKGLEWVASIYSSYGYTSYADSVKGRFTISADTSKNTAYLQMNSLRAEDTAVYYCARTVRGSKKPYFSGWAMDYWGQGTLVTVSSGGGGSDIQMTQSPSSLSASVGDRVTITCRASQSVSSAVAWYQQKPGKAPKLLIYSASSLYSGVPSRFSGSRSGTDFTLTISSLQPEDFATYYCQQYSWGPFTFGQGTKVEIK
chain 2: MNLLLILTFVAAAVAEFEVQLVESGGGLVQPGGSLRLSCAASGFNIGSSSIHWVRQAPGKGLEWVASIYSAFASTSYADSVKGRFTISADTSKNTAYLQMNSLRAEDTAVYYCARYHFPFGFALDYWGQGTLVTVSSGGGGSDIQMTQSPSSLSASVGDRVTITCRASQSVSSAVAWYQQKPGKAPKLLIYSASSLYSGVPSRFSGSRSGTDFTLTISSLQPEDFATYYCQQGVYLFTFGQGTKVEIKLEDKTHTKVEPKTSDKTHTCPPCPAPELLGGPSVFLFPPKPKDTLMISRTPEVTCVVVDVSHEDPEVKFNWYVDGVEVHNAKTKPREEQYNSTYRVVSVLTVLHQDWLNGKEYKCKVSNKALPAPIEKTISKAKGQPREPMVFDLPPSREEMTKNQVSLWCMVKGFYPSDIAVEWESNGQPENNYKTTPPVLDSDGSFFLYSKLTVDKSRWQQGNVFSCSVMHEALHNHYTQKSLSLSPGKSGSETPGTSESATPESGGGEVQLVESGGGLVQPGGSLRLSCAASGFNISYSSIHWVRQAPGKGLEWVAYISSYYGYTYYADSVKGRFTISADTSKNTAYLQMNSLRAEDTAVYYCARAHYFPWAGAMDYWGQGTLVTVSSGGGGSDIQMTQSPSSLSASVGDRVTITCRASQSVSSAVAWYQQKPGKAPKLLIYSASSLYSGVPSRFSGSRSGTDFTLTISSLQPEDFATYYCQQYYWPITFGQGTKVEIK
% Wnt Maxima Avg: 63% | EC50 (nM), TOPFLASH assay: 0.3 nM | Maximal Signal (% Wnt3a maxima) (% Wnt3a maxima): 63 | Topflash EC50 (nM) Avg: 0.3 nM

B4: CT0003 (bispecific antibody)
chain 1: MNLLLILTFVAAAVAEFEVQLVESGGGLVQPGGSLRLSCAASGFNISSYYIHWVRQAPGKGLEWVASIYSSYGYTSYADSVKGRFTISADTSKNTAYLQMNSLRAEDTAVYYCARTVRGSKKPYFSGWAMDYWGQGTLVTVSSGGGGSDIQMTQSPSSLSASVGDRVTITCRASQSVSSAVAWYQQKPGKAPKLLIYSASSLYSGVPSRFSGSRSGTDFTLTISSLQPEDFATYYCQQYSWGPFTFGQGTKVEIKLEDKTHTKVEPKSSDKTHNCPPCPAPELLGGPSVFLFPPKPKDTLMISRTPEVTCVVVDVSHEDPEVKFNWYVDGVEVHNAKTKPREEQYNSTYRVVSVLTVLHQDWLNGKEYKCKVSNKALPAPIEKTISKAKGQPREPQVYTLPPIRELMTSNQVSLSCAVKGFYPSDIAVEWESNGQPENNYKTTPPVLDSDGSFFLVSKLTVDKSRWQQGNVFSCSVMHEALHNHYTQKSLSLSPGKSGSETPGTSESATPESGGGEVQLVESGGGLVQPGGSLRLSCAASGFNIHSSSIHWVRQAPGKGLEWVAATYSSFGSITYADSVKGRFTISADTSKNTAYLQMNSLRAEDTAVYYCARYHHPFGYALDYWGQGTLVTVSSGTTAASGSSGGSSSGADIQMTQSPSSLSASVGDRVTITCRASQSVSSAVAWYQQKPGKAPKLLIYSASSLYSGVPSRFSGSRSGTDFTLTISSLQPEDFATYYCQQGVYLFTFGQGTKVEIK
chain 2: MNLLLILTFVAAAVAEFEVQLVESGGGLVQPGGSLRLSCAASGFNISYSSIHWVRQAPGKGLEWVAYISSYYGYTYYADSVKGRFTISADTSKNTAYLQMNSLRAEDTAVYYCARAHYFPWAGAMDYWGQGTLVTVSSGGGGDIQMTQSPSSLSASVGDRVTITCRASQSVSSAVAWYQQKPGKAPKLLIYSASSLYSGVPSRFSGSRSGTDFTLTISSLQPEDFATYYCQQYYWPITFGQGTKVEIKLEDKTHTKVEPKTSDKTHTCPPCPAPELLGGPSVFLFPPKPKDTLMISRTPEVTCVVVDVSHEDPEVKFNWYVDGVEVHNAKTKPREEQYNSTYRVVSVLTVLHQDWLNGKEYKCKVSNKALPAPIEKTISKAKGQPREPMVFDLPPSREEMTKNQVSLWCMVKGFYPSDIAVEWESNGQPENNYKTTPPVLDSDGSFFLYSKLTVDKSRWQQGNVFSCSVMHEALHNHYTQKSLSLSPGKSGSETPGTSESATPESGGGEVQLVESGGGLVQPGGSLRLSCAASGFNIHSSSIHWVRQAPGKGLEWVAATYSSFGSITYADSVKGRFTISADTSKNTAYLQMNSLRAEDTAVYYCARYHHPFGYALDYWGQGTLVTVSSGTTAASGSSGGSSSGADIQMTQSPSSLSASVGDRVTITCRASQSVSSAVAWYQQKPGKAPKLLIYSASSLYSGVPSRFSGSRSGTDFTLTISSLQPEDFATYYCQQGVYLFTFGQGTKVEIK
% Wnt Maxima Avg: 42% | EC50 (nM), TOPFLASH assay: 0.4 nM | Maximal Signal (% Wnt3a maxima) (% Wnt3a maxima): 42 | Topflash EC50 (nM) Avg: 0.4 nM
